These results are taken from PMC5114850 (Science (New York, N.Y.), 2016).

The target of the assay is recombinant human calmodulin (human, UniProt P0DP23 1-149). Kind of assay: ITC.

As to Ac-EDLSSSYYRDYVKKILKKKK-NH2 [CaMBP0 peptide of zebrafish STRA6], the dissociation constant (Kd) turned out to be 2.56 ± 0.722 µM, the dH is -7.8 ± 0.8 kcal/mol and the “stoichiometry N” value was 1.01 ± 0.07 sites.
